Data on 9 molecules can be found in article PMC4730607, “DNA-binding sequence specificity of DUX4”.

B1: DUX4(half) (dsDNA)
DNA 1: GGCAGTCCAGCGTAATCAAGTCGGC
DNA 2: GCCGACTTGATTACGCTGGACTGCC
B2: Pitx1-25 (dsDNA)
DNA 1: GGCAGTCTTCTAATTAGTAGTCGGC
DNA 2: GCCGACTACTAATTAGAAGACTGCC
B3: MALR (dsDNA)
DNA 1: GGCAGTCTAATTGAATCAAGTCGGC
DNA 2: GCCGACTTGATTCAATTAGACTGCC
B4: SELEX4 (dsDNA)
DNA 1: GGCAGTCTAATGTTTTATAGTCGGC
DNA 2: GCCGACTATAAAACATTAGACTGCC
B5: DUX4(CC) (dsDNA)
DNA 1: GGCAGTCTAATCCAATCAAGTCGGC
DNA 2: GCCGACTTGATTGGATTAGACTGCC
B6: DUX4(TT) (dsDNA)
DNA 1: GGCAGTCTAATTTAATCAAGTCGGC
DNA 2: GCCGACTTGATTAAATTAGACTGCC
B7: DUX4(mut) (dsDNA)
DNA 1: GGCAGTCGTGAATAATCAAGTCGGC
DNA 2: GCCGACTTGATTATTCACGACTGCC
B8: DUX4(TC) (dsDNA)
DNA 1: GGCAGTCTAATTCAATCAAGTCGGC
DNA 2: GCCGACTTGATTGAATTAGACTGCC
B9: SELEX2 (dsDNA)
DNA 1: GGCAGTCTAATTCAATCCAGTCGGC
DNA 2: GCCGACTGGATTGAATTAGACTGCC

For the first data set, the target named is T1, DUX4 DNA-binding domain (DUX4-HD, both homeodomains) (UniProt Q9UBX2 19-152). As to the kind of experiment: EMSA; excess protein; Direct EMSA: 10 uL 100 uM probe + 20 uL 250 uM protein (protein stock in 500 mM NaCl, 20 mM Tris-Cl pH 7.4), 1 h on ice, 3% agarose, EtBr; competition: 10 uL 100 uM competitor, 2 uL 125 uM protein (50% glycerol, 250 mM NaCl, 10 mM Tris-Cl pH 7.4), 2 uL 100 uM FAM-CT, 30 uL total, 1 h on ice. The following applies: protein: recombinant; tags: N-terminal His6 removed by TEV (first construct); His-SUMO fusion (later construct); blunt.
T1 sequence (Q9UBX2 19-152): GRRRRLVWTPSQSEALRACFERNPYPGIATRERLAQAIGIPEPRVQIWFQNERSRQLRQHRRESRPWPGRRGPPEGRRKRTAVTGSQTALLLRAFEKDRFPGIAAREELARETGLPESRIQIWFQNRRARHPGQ
With B1, the binding result is recorded as “no binding”.

For the molecule B2, the binding result is given as “no binding”.

With B3, the binding result is on record as “binds”.

In the case of B4, the binding result is reported as “no binding”.

Another data set has as its target T1, DUX4 DNA-binding domain (DUX4-HD, both …). Briefly: competition; vs FAM-CT; Direct EMSA: 10 uL 100 uM probe + 20 uL 250 uM protein (protein stock in 500 mM NaCl, 20 mM Tris-Cl pH 7.4), 1 h on ice, 3% agarose, EtBr; competition: 10 uL 100 uM competitor, 2 uL 125 uM protein (50% glycerol, 250 mM NaCl, 10 mM Tris-Cl pH 7.4), 2 uL 100 uM FAM-CT, 30 uL total, 1 h on ice. The note with it: protein: recombinant; tags: N-terminal His6 removed by TEV (first construct); His-SUMO fusion (later construct); blunt. On the technique in general: In EMSA bound probe runs differently from free probe, usually more slowly.
For B5, the binding result was “binds”.

Regarding B6, the binding result is given as “binds”.

Take B7: the binding result is “no binding”.

For the molecule B8, the binding result is reported as “binds”.

Another data set has the same target. Briefly: competition; vs FAM-CT; CT competed best; Direct EMSA: 10 uL 100 uM probe + 20 uL 250 uM protein (protein stock in 500 mM NaCl, 20 mM Tris-Cl pH 7.4), 1 h on ice, 3% agarose, EtBr; competition: 10 uL 100 uM competitor, 2 uL 125 uM protein (50% glycerol, 250 mM NaCl, 10 mM Tris-Cl pH 7.4), 2 uL 100 uM FAM-CT, 30 uL total, 1 h on ice. The note with it: protein: recombinant; tags: N-terminal His6 removed by TEV (first construct); His-SUMO fusion (later construct); blunt.
Consider B9, for which the binding result is on record as “binds”.
